T1: human DLL3 (hDLL3) on cells (human, UniProt Q9NYJ7 27-618)
T1 construct: whole, on cells; V5-tagged); also called DLL3 on SHP-77 cells (endogenous); hDLL3 on HEK293 cells
T1 sequence (looked up): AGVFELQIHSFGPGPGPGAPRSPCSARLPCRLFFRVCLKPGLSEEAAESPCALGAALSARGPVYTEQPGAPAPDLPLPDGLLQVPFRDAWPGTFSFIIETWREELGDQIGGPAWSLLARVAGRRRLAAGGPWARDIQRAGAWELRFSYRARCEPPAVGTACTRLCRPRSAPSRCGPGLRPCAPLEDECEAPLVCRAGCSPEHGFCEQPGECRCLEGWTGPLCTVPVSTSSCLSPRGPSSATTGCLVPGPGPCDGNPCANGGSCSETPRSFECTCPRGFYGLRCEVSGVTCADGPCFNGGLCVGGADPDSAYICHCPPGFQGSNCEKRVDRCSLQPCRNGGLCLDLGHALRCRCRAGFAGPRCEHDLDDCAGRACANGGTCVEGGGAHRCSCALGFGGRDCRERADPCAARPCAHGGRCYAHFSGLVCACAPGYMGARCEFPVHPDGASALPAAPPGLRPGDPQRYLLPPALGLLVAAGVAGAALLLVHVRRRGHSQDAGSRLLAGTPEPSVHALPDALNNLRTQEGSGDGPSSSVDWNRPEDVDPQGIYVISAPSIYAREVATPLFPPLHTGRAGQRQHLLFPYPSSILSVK

T2: recombinant DLL3 protein (purchased from ACRO, DL3-H5255) (human, UniProt Q9NYJ7 27-479)
T2 construct: Bought; also called human DLL3 protein; hDLL3
T2 sequence (looked up): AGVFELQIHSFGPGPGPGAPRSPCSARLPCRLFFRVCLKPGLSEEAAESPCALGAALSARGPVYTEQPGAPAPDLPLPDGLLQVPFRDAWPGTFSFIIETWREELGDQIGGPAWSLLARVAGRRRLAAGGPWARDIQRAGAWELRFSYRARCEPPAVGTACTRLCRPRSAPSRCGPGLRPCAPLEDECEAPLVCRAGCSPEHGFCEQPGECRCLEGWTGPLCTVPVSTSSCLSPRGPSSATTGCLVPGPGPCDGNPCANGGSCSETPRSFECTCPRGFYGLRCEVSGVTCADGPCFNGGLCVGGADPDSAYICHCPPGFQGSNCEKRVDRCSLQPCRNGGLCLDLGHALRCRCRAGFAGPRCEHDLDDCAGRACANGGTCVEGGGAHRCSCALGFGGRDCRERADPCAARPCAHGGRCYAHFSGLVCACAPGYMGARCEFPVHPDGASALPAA

B1: 1A5 (antibody, V domains shown)
VH: EVQLQQSGPELVKPGASVKISCKTSGYTFTESAMHWVKQSHGKSLEWIGGINPNNGGISYSQKFKGKATLTVDKSSSTAYMELRSLTSEDSAVYYCGSSYYRDYFDYWGQGTTLTVSS
VL: NIVMTQSPESMSMSVGERVTLSCKASENVGTYVSWYQQKPDQSPKLLIYGASNRYTGVPDRFTGSGSATHFTLTISSVQAEDLADYHCGQSYSYPLTFGAGTKLELK
notes: also called hybridoma antibody clone 1A5
B2: 33F11 (antibody, V domains shown)
VH: B1 VH with S32N, A33T, K43E, N54R, G57V, I58T, S61N, G97T, S98N, S99T
VL: B1 VL with E9K, A68P, H70D, S77R, V78M, D85H, H87Y, S91T, S93T
notes: Murine hybridoma monoclonal antibody; also called hybridoma antibody clone 33F11
B3: 6A2 (antibody, V domains shown)
VH: EVQLQQSGPELVKPGASVKISCKASGYTFTDYNMNWVKQSQGKSLEWIGYIYPYNGGTGYNQKFKTKATLTVDNSSSTAYMEFRSLTSEDSAVYYCARSDPYYTMDYWGQGTSVTVSS
VL: IIVMTQTPKFLLVSAGDRVTISCKASQSVNNDVAWYQQKPGQSPKLLIYFTSNRFTGVPDRFTGSGYGTDFTFTISSVQAEDLAVYFCQQDHNSPYTFGGGTKLEIK
notes: Murine hybridoma monoclonal antibody; also called hybridoma antibody clone 6A2
B4: 13C2 (antibody, V domains shown)
VH: EVKLVESGGGLVKPGGSLKLSCAASGFAFSSYDMSWVRQTPEKRLEWVATISSGGSYTYYPDSVKGRFTISRDNGRNTLYLQMSSLRSEDTALYYCASPLLGLRFAYWGQGTLVTVSA
VL: QAVVTQESALTTSPGETVTLTCRSSTGAVTTINYANWVQEKPDHLFTGLIGGTNNRAPGVPARFSGSLIGDKAALTITGAQTEDEAIYFCALYYSNHWVFGGGTKLTVL
notes: Murine hybridoma monoclonal antibody; also called hybridoma antibody clone 13C2
B5: 32E8 (antibody, V domains shown)
VH: QVTLKESGPGILQPSQTLSLTCSFSGFSLSTSGMGVGWIRQPSGKGLEWLALIWWDDVKRYHPALKSRLTISKDTSSSQVFLKIASVDTADTATYYCARIAEVTGQVGLHYAMDYWGQGTSVTVSS
VL: QTVLTQSPAIMSASLGERVTMTCTASSSVNSSSLHWYQQKPGSSPKLWIYTTSNLASGVPARFSGSGSGTSYSLTISSMEAEDAATYYCHQFHRSPFTFGSGTKLEIK
notes: Murine hybridoma monoclonal antibody; also called hybridoma antibody clone 32E8
B6: 4H7 (antibody, V domains shown)
VH: EVQLQQSGAELVRPGALVKLSCKASGFNFKDYYIHWVKQRPELGLEWIGWIDPENGNAIYDPKFQDKASITADTSSNTAYLHLSSLTSEGTAVYYCASEDAYYPFAYWGQGTLVTVSS
VL: DIVMSQSPSSLAVSVGEKVTMRCKSSQSLLYSSNQKNYLAWYQQKPGQSPKLLIYWASTRESGVPDRFTGSGSGTDFTLTISSVKAEDLAVYFCQQYYSYRTFGGGTKLEIK
notes: Murine hybridoma monoclonal antibody; also called hybridoma antibody clone 4H7
B7: 23G2 (antibody, V domains shown)
VH: QVQLQQSGPELVRPGVSVKISCKGSGYTFTDYAIHWVKQSRAKSPEWIGIVSTDSGKTSFNQKFKGKATMTVDKSSTTAYMELVRLTSEDSAIYYCARNPYYDYDGYAMDYWGQGTSVTVSS
VL: DIQMTQSSSYLSVSLGGRVTIICKASDHINNWLAWYQQKPGNAPRLIISGATSLETGVPSRFSGSGSGKDYTLSITSLQTEDVATYYCQQYWSIPYTFGGGTKLEIK
notes: Murine hybridoma monoclonal antibody; also called hybridoma antibody clone 23G2
B8: 15G2 (antibody, V domains shown)
VH: EVQLQQSGPELEKPGASVRISCKASGYSFTDYNMHWVKQSNGKSLEWIGNIDPYYGGTNYNQKFEGKATLTVDKSSSTAYMQLKSLTSEDSAVYYCARGGNNYGDYWGQGTTLTVSS
VL: DIQMTQSPASLAASVGETVTITCRASENIYYSLAWYQQKQGKSPQLLIFNANSLEDGVPSRFSGSGSGTQYSMKINSMQPEDTATYFCKQAYDVPWTFGGGTKLEIK
notes: Murine hybridoma monoclonal antibody; also called hybridoma antibody clone 15G2
B9: 10B1 (antibody, V domains shown)
VH: DVKLVESGGGLVKPGGSLKLSCAASGFTFSNYTISWVRQTPEKRLEWVATFSSGGSYTYYSDSVKGRFTISRDNAKNTLYLQMSSLKSEDTAMYYCSRDRRSDGYYHLYAMDYWGQGTSVTVSS
VL: DIQMTQTTSSLSASLGDRVTISCRASQDISHYLNWYQQKPDGTVKLLIYYTSRLHSGVPSRFSGSGSGTAYSLTISNLEQEDIATYFCQQGYTLPLTFGAGTKLELK
notes: Murine hybridoma monoclonal antibody; also called hybridoma antibody clone 10B1
B10: 19C7 (antibody, V domains shown)
VH: EVQLQQSGPELVRPGASVRMSCKASGYTFTYYVMHWVKQKPGLGLEWIGYINPYNDGTEYNEKFKGKATLTSDKSSSTAFMELSSLTSEDSAVYYCARWLLREYAMDYWGQGTSVTVSS
VL: DIQMTQSPASLSASVGETVTITCRASDNIHNYLAWYQQKQGKSPQLLVYNAKTLADGVPSRFSGSGSGTQYSLKINSLQPEDFGSYYCQHFWSTPWTFGGGTKLEIK
notes: Murine hybridoma monoclonal antibody; also called hybridoma antibody clone 19C7
B11: 26D9 (antibody, V domains shown)
VH: EVQLQQSGPELVKPGASVKMSCKASGYTFTTYVMHWVKQKPGQGLEWIGYINPYNDDTNYNEKFKGKATLTSDKSSSTAYMELSSLTSEDSAVYYCARWGLTGTGDYYAMDYWGQGTSVTVSS
VL: B10 VL with D27G, I29V, K42R, L46V, Q79L, S93T, K103T
notes: Murine hybridoma monoclonal antibody; also called hybridoma antibody clone 26D9
B12: FDA027 (antibody, human IgG1, kappa, V domains shown)
VH: QVQLVQSGAEVKKPGASVKVSCKASGYTFTNYGMNWVRQAPGQGLEWMGWINTYTGEPTYADDFKGRVTMTTDTSTSTAYMELRSLRSDDTAVYYCARIGDSSPSDYWGQGTLVTVSS
VL: EIVMTQSPATLSVSPGERATLSCKASQSVSNDVVWYQQKPGQAPRLLIYYASNRYTGIPARFSGSGSGTEFTLTISSLQSEDFAVYYCQQDYTSPWTFGQGTKLEIKR
notes: also called anti-DLL3 antibody FDA027

These results are taken from patent publication US20250114467A1 (SHANGHAI FUDAN ZHANGJIANG BIO PHARMACEUTICAL, published 2025).

Substitutions are numbered along the chain they refer to.

One assay concerns the target T1, human DLL3 (hDLL3) on cells. The assay is described as follows: flow cytometry on SHP-77 cells, 1 µg/ml antibody, kept on ice (0 H of the internalization assay). The method, then:
The SHP-77 cells were used to detect the internalization activity of the hybridoma antibodies obtained in Example 3-3 by using the FACS method described in Example 3-1. The detecting method is briefly described as follows: Six aliquots of 5×10⁵ SHP-77 cells each were prepared in a 96-well V-bottom plate and centrifuged at 1500 r/min for 1 minute, after which the supernatant was discarded. 1 μg/ml of the saturated antibody to be detected was added to each well (200 μL per well) and incubated on ice for 30 minutes. Then, 150 μL of PBS was added to each well, followed by centrifugation at 1500 r/min for 1 minute, and the supernatant was discarded. This step was repeated four times. The cells were resuspended in 200 μl of PBS, and one aliquot was incubated at 37° C. for various durations: 5 hours, 3 hours, 1 hour, 0.5 hours, and 15 minutes. The remaining aliquot was kept on ice. After incubation, all samples were centrifuged at 4° C., 1500 r/min for 1 minute, and the supernatant was discarded. APC-labeled goat anti-mouse IgG (Jackson, catalog number 109-605-098, diluted 1:800 in PBS) was added to each well (50 μL per well) and incubated on ice for 30 minutes. The cells were then washed four times by resuspending in 150 μL of PBS, followed by centrifugation at 1500 r/min for 1 minute and discarding the supernatant. Finally, the cells were resuspended in 100 μL of PBS and analyzed using a CytoFLEX flow cytometer (purchased from Beckman).
On to B1, for which the “fluorescence value at 0 H” value was found to be 39300.

As for B2, the “fluorescence value at 0 H” value worked out at 27600.

B3: the “fluorescence value at 0 H” value was determined as 20300.

Take B4: the “fluorescence value at 0 H” value worked out at 40200.

With B5, the “fluorescence value at 0 H” value was determined as 32100.

For B6, the “fluorescence value at 0 H” value amounted to 15400.

Take B7: the “fluorescence value at 0 H” value was 20300.

B8: the “fluorescence value at 0 H” value was found to be 20300.

On to B9, for which the “fluorescence value at 0 H” value amounted to 22400.

Take B10: the “fluorescence value at 0 H” value is 29600.

Take B11: the “fluorescence value at 0 H” value is 15300.

For another assay, the target named is T2, recombinant DLL3 protein (purchased …). Briefly: ELISA, plate-coated human DLL3 protein 1 µg/ml. From the text: Six 6-week-old SPF grade female Balb/C mice (purchased from Shanghai Jihui Laboratory Animal Care Co., Ltd.) were selected and randomly divided into two groups, A and B. They were immunized with recombinant DLL3 protein (purchased from ACRO, DL3-H5255) at two-week intervals. Freund's complete adjuvant was used for the first immunization and Freund's incomplete adjuvant was used for subsequent immunizations. On days 35 and 49, blood samples were collected from the mice via orbital bleeding, and the immune serum titers of the mice were detected using conventional methods of ELISA and Flow Cytometry (FACS). ELISA detection method: DLL3 protein was diluted with PBS to a concentration of 1 μg/ml. 100 μl/well was added to a 96-well ELISA plate and incubated overnight at 4° C. The next day, the supernatant was discarded, and each well was blocked with 200 μl of 2% milk in PBS for 2 hours. After discarding the blocking solution, the wells were washed 3 times with 200 μl of PBST (0.1% Tween20). The serum to be detected was pre-diluted 100 times as the starting concentration, followed by a 3-fold gradient dilution across 11 concentrations, with 100 μl added to each well of the ELISA plate. After incubating at room temperature for 1 hour, the supernatant was discarded and the wells were washed 5 times with 200 μl of PBST (0.1% Tween20). Then, 100 μl of HRP-labeled goat anti-mouse secondary antibody (Jackson, 1:10000) was added and incubated at room temperature for 1 hour. After discarding the supernatant, the wells were washed 7 times with 200 μl of PBST (0.1% Tween20). 100 μl of TMB chromogen solution was added to each well for 10 minutes. The reaction was terminated with 2M HCl, and absorbance value at 450 nm was read with a Microplate Reader (purchased from Biotek, Elx808).
For the hybridoma clones with good binding and internalization activities identified in Example 5, the heavy chain variable region sequences were synthesized and cloned into the pFUSEss-CHIg-hG1 vector (purchased from InvivoGen, catalog number pfusess-hchgl) comprising the amino acid sequence of the human antibody IgG1 heavy chain constant region by homologous recombination.
B12: the EC50 amounted to 0.0108 µg/mL.

As a reminder, the EC50 is the concentration needed to bring the measured effect to its halfway point.
